IntAct's records for PubMed 25416956

B1: Plakophilin-2 (Homo sapiens), Q99959 (parent)
chain: MAAPGAPAEYGYIRTVLGQQILGQLDSSSLALPSEAKLKLAGSSGRGGQTVKSLRIQEQVQQTLARKGRSSVGNGNLHRTSSVPEYVYNLHLVENDFVGGRSPVPKTYDMLKAGTTATYEGRWGRGTAQYSSQKSVEERSLRHPLRRLEISPDSSPERAHYTHSDYQYSQRSQAGHTLHHQESRRAALLVPPRYARSEIVGVSRAGTTSRQRHFDTYHRQYQHGSVSDTVFDSIPANPALLTYPRPGTSRSMGNLLEKENYLTAGLTVGQVRPLVPLQPVTQNRASRSSWHQSSFHSTRTLREAGPSVAVDSSGRRAHLTVGQAAAGGSGNLLTERSTFTDSQLGNADMEMTLERAVSMLEADHMLPSRISAAATFIQHECFQKSEARKRVNQLRGILKLLQLLKVQNEDVQRAVCGALRNLVFEDNDNKLEVAELNGVPRLLQVLKQTRDLETKKQITDHTVNLRSRNGWPGAVAHACNPSTLGGQGGRITRSGVRDQPDQHGLLWNLSSNDKLKNLMITEALLTLTENIIIPFSGWPEGDYPKANGLLDFDIFYNVTGCLRNMSSAGADGRKAMRRCDGLIDSLVHYVRGTIADYQPDDKATENCVCILHNLSYQLEAELPEKYSQNIYIQNRNIQTDNNKSIGCFGSRSRKVKEQYQDVPMPEEKSNPKGVEWLWHSIVIRMYLSLIAKSVRNYTQEASLGALQNLTAGSGPMPTSVAQTVVQKESGLQHTRKMLHVGDPSVKKTAISLLRNLSRNLSLQNEIAKETLPDLVSIIPDTVPSTDLLIETTASACYTLNNIIQNSYQNARDLLNTGGIQKIMAISAGDAYASNKASKAASVLLYSLWAHTELHHAYKKAQFKKTDFVNSRTAKAYHSLKD
partner: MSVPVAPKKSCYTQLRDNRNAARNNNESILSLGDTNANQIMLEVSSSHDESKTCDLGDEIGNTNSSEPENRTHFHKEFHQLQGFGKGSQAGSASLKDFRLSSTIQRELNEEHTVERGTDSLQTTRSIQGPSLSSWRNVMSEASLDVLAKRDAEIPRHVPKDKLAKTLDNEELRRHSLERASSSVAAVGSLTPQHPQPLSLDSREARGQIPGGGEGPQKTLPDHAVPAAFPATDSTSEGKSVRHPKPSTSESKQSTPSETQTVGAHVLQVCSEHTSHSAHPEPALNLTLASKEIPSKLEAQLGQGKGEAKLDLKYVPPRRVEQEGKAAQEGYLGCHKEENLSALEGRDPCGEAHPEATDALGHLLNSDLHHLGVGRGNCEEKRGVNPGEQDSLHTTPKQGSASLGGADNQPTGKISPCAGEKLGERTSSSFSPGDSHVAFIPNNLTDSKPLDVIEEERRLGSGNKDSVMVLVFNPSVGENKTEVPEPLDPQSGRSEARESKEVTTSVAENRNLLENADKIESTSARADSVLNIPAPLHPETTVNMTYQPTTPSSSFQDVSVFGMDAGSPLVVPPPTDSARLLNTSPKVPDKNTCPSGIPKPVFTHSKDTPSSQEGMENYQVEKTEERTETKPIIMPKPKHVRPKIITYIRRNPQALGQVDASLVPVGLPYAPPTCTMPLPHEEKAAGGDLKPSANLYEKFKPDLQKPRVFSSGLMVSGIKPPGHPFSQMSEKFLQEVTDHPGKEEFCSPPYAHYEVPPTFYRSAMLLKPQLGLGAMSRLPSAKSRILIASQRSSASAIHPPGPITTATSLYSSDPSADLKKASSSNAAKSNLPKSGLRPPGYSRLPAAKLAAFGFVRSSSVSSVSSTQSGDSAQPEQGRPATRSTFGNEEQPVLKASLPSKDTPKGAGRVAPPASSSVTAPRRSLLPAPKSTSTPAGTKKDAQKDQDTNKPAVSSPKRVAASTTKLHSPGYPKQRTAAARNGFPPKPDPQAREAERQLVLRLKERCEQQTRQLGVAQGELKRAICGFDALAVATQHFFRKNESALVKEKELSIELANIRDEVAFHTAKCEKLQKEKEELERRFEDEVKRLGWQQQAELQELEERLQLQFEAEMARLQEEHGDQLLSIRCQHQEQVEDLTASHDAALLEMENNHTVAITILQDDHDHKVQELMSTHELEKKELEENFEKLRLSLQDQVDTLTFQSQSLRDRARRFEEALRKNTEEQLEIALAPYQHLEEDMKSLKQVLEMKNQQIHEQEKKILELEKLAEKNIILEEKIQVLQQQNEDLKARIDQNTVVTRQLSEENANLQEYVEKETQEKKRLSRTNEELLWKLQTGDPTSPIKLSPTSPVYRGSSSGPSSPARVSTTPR
B2: Inactive peptidyl-prolyl cis-trans isomerase FKBP6 (Homo sapiens), O75344 (parent)
chain: MGGSALNQGVLEGDDAPGQSLYERLSQRMLDISGDRGVLKDVIREGAGDLVAPDASVLVKYSGYLEHMDRPFDSNYFRKTPRLMKLGEDITLWGMELGLLSMRRGELARFLFKPNYAYGTLGCPPLIPPNTTVLFEIELLDFLDCAESDKFCALSAEQQDQFPLQKVLKVAATEREFGNYLFRQNRFYDAKVRYKRALLLLRRRSAPPEEQHLVEAAKLPVLLNLSFTYLKLDRPTIALCYGEQALIIDQKNAKALFRCGQACLLLTEYQKARDFLVRAQKEQPFNHDINNELKKLASCYRDYVDKEKEMWHRMFAPCGDGSTAGES
partner: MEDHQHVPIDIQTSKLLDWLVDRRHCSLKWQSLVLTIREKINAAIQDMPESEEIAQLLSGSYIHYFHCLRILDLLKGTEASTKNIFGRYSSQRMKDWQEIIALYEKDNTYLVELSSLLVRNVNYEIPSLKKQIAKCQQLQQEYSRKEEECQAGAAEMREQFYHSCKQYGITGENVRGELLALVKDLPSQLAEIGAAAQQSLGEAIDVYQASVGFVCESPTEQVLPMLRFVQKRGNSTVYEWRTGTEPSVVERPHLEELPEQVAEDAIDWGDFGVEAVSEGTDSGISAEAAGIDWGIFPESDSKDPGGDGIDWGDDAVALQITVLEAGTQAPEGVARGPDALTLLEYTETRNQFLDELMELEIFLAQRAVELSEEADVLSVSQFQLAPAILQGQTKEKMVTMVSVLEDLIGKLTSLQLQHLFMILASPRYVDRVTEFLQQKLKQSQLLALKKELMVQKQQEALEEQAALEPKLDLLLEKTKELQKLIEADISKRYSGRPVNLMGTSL
B3: Inactive peptidyl-prolyl cis-trans isomerase FKBP6 (Homo sapiens), O75344 (parent)
chain: B2 chain
partner: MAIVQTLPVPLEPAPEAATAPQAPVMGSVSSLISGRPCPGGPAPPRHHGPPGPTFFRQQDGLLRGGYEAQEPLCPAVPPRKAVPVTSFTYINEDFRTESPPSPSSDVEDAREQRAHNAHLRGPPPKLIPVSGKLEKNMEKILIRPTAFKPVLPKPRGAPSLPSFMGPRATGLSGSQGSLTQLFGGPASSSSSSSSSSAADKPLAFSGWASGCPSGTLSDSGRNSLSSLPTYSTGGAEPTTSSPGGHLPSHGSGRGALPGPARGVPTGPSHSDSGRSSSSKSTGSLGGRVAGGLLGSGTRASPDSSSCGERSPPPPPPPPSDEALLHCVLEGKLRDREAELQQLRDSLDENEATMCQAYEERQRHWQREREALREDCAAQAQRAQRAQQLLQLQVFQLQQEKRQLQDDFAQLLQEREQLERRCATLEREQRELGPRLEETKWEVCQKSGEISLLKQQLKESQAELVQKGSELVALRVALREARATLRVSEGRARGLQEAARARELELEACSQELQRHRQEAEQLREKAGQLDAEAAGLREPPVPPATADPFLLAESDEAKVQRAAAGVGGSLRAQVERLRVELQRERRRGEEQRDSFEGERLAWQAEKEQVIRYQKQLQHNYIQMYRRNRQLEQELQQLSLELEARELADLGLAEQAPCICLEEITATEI
B4: Keratin, type II cytoskeletal 6A (Homo sapiens), P02538 (parent)
chain: MASTSTTIRSHSSSRRGFSANSARLPGVSRSGFSSVSVSRSRGSGGLGGACGGAGFGSRSLYGLGGSKRISIGGGSCAISGGYGSRAGGSYGFGGAGSGFGFGGGAGIGFGLGGGAGLAGGFGGPGFPVCPPGGIQEVTVNQSLLTPLNLQIDPTIQRVRAEEREQIKTLNNKFASFIDKVRFLEQQNKVLETKWTLLQEQGTKTVRQNLEPLFEQYINNLRRQLDSIVGERGRLDSELRGMQDLVEDFKNKYEDEINKRTAAENEFVTLKKDVDAAYMNKVELQAKADTLTDEINFLRALYDAELSQMQTHISDTSVVLSMDNNRNLDLDSIIAEVKAQYEEIAQRSRAEAESWYQTKYEELQVTAGRHGDDLRNTKQEIAEINRMIQRLRSEIDHVKKQCANLQAAIADAEQRGEMALKDAKNKLEGLEDALQKAKQDLARLLKEYQELMNVKLALDVEIATYRKLLEGEECRLNGEGVGQVNISVVQSTVSSGYGGASGVGSGLGLGGGSSYSYGSGLGVGGGFSSSSGRAIGGGLSSVGGGSSTIKYTTTSSSSRKSYKH
partner: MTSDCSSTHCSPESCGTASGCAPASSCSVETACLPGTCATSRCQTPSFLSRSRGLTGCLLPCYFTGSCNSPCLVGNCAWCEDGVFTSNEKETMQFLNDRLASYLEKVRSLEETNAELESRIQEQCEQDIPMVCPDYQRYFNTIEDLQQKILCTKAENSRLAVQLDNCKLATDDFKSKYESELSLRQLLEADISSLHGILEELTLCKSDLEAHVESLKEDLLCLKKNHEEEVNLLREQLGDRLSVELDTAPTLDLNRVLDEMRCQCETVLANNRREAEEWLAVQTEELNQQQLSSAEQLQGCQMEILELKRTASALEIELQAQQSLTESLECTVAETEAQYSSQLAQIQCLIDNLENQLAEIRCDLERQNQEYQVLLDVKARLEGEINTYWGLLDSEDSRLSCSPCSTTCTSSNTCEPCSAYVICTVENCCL
B5: Zinc finger protein 41 (Homo sapiens), P51814 (parent)
chain: MAANGDSPPWSPALAAEGRGSSCEVRRERTPEARIHSVKRYPDLSPGPKGRSSADHAALNSIVSLQASVSFEDVTVDFSKEEWQHLDPAQRRLYWDVTLENYSHLLSVGYQIPKSEAAFKLEQGEGPWMLEGEAPHQSCSGEAIGKMQQQGIPGGIFFHCERFDQPIGEDSLCSILEELWQDNDQLEQRQENQNNLLSHVKVLIKERGYEHKNIEKIIHVTTKLVPSIKRLHNCDTILKHTLNSHNHNRNSATKNLGKIFGNGNNFPHSPSSTKNENAKTGANSCEHDHYEKHLSHKQAPTHHQKIHPEEKLYVCTECVMGFTQKSHLFEHQRIHAGEKSRECDKSNKVFPQKPQVDVHPSVYTGEKPYLCTQCGKVFTLKSNLITHQKIHTGQKPYKCSECGKAFFQRSDLFRHLRIHTGEKPYECSECGKGFSQNSDLSIHQKTHTGEKHYECNECGKAFTRKSALRMHQRIHTGEKPYVCADCGKAFIQKSHFNTHQRIHTGEKPYECSDCGKSFTKKSQLHVHQRIHTGEKPYICTECGKVFTHRTNLTTHQKTHTGEKPYMCAECGKAFTDQSNLIKHQKTHTGEKPYKCNGCGKAFIWKSRLKIHQKSHIGERHYECKDCGKAFIQKSTLSVHQRIHTGEKPYVCPECGKAFIQKSHFIAHHRIHTGEKPYECSDCGKCFTKKSQLRVHQKIHTGEKPNICAECGKAFTDRSNLITHQKIHTREKPYECGDCGKTFTWKSRLNIHQKSHTGERHYECSKCGKAFIQKATLSMHQIIHTGKKPYACTECQKAFTDRSNLIKHQKMHSGEKRYKASD
B6: Beta-crystallin A4 (Homo sapiens), P53673 (parent)
chain: MTLQCTKSAGPWKMVVWDEDGFQGRRHEFTAECPSVLELGFETVRSLKVLSGAWVGFEHAGFQGQQYILERGEYPSWDAWGGNTAYPAERLTSFRPAACANHRDSRLTIFEQENFLGKKGELSDDYPSLQAMGWEGNEVGSFHVHSGAWVCSQFPGYRGFQYVLECDHHSGDYKHFREWGSHAPTFQVQSIRRIQQ
partner: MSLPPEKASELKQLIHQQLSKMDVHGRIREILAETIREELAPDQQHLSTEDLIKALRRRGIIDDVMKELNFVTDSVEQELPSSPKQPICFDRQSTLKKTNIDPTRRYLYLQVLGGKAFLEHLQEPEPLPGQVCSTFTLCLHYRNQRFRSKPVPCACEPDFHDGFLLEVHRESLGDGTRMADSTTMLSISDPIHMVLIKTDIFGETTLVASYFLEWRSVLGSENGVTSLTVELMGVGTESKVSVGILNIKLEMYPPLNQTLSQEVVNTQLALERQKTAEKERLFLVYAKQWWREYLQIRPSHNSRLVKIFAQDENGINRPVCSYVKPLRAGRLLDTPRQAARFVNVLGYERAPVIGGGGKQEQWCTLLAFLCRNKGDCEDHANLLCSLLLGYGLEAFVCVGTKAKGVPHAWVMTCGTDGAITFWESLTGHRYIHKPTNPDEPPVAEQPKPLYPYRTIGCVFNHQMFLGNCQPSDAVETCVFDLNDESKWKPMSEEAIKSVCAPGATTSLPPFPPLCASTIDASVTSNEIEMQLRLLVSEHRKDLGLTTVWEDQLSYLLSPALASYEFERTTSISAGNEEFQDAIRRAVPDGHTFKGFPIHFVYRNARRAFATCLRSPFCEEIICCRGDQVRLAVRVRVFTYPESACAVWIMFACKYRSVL

Variants of: B1
Conditions: with mtus2_human MTUS2, Q5JR59

| effect of a mutation on the interaction | Variant |
| --- | --- |
| disrupting interaction | S140F |

Variants of: B1
Conditions: with mtus2_human MTUS2, Q5JR59
Remark: another data set of the same source

| effect of a mutation on the interaction | Variant |
| --- | --- |
| disrupting interaction | S644P |

Variants of: B2
Conditions: with ck5p3_human CDK5RAP3, Q96JB5

| effect of a mutation on the interaction | Variant |
| --- | --- |
| disrupting interaction | F72L |

Variants of: B3
Conditions: with lzts2_human LZTS2, Q9BRK4

| effect of a mutation on the interaction | Variant |
| --- | --- |
| disrupting interaction | F72L |

Variants of: B4
Conditions: with KRT40, Q6A162

| effect of a mutation on the interaction | Variant |
| --- | --- |
| disrupting interaction | I462S |

Variants of: B4
Conditions: with KRT40, Q6A162
Remark: another data set of the same source

| effect of a mutation on the interaction | Variant |
| --- | --- |
| disrupting interaction | A463P |

Variants of: B5
Conditions: with fam9b_human FAM9B

| effect of a mutation on the interaction | Variant |
| --- | --- |
| disrupting interaction | Q111L |

Variants of: B6
Conditions: with cep76_human CEP76, Q8TAP6

| effect of a mutation on the interaction | Variant |
| --- | --- |
| disrupting interaction | L69P |

Variants of: B6
Conditions: with cep76_human CEP76, Q8TAP6
Remark: another data set of the same source

| effect of a mutation on the interaction | Variant |
| --- | --- |
| disrupting interaction | V36M |
